Laboratory results: patent US20130310305A1

Tests used:
[1] = target: plasminogen (purified; Molecular Innovations in the plasmin activity reactions); test: cell-based or functional assay
[2] = target: mouse plasminogen (endogenous, in descending aorta protein of LDLR-/- ApoB48-deficient mice) (mouse) (UniProt P20918); test: co-immunoprecipitation from pooled mouse descending aorta protein, densitometry of the western blot
Chain of UniProt P20918 (P20918 20-812 limits assumed): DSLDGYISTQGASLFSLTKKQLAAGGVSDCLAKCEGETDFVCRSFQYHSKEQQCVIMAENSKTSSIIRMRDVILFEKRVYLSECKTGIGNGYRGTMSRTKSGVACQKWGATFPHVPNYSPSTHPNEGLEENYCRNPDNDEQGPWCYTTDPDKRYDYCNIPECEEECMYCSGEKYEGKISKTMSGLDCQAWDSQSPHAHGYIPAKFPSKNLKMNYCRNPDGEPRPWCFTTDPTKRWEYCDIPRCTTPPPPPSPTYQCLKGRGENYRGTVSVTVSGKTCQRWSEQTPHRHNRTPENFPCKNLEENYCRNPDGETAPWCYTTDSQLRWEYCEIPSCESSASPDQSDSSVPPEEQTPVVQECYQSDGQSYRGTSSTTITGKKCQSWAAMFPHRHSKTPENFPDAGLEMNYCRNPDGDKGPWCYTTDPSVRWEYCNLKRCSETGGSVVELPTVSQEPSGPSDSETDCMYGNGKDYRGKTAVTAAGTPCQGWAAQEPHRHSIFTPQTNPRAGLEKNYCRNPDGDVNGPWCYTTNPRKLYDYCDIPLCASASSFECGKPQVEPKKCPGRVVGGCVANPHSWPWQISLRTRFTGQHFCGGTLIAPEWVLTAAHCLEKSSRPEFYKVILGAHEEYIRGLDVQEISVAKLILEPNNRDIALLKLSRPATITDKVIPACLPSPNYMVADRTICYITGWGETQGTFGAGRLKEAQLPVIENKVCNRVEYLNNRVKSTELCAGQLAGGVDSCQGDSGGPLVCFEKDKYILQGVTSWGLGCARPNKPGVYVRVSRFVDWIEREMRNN

plasmin activity (chromozym assay); 50 nM PAI-1 pre-bound to plasminogen 1 h at 37 C before tPA was added (late) [1] [U/ml]	fold more plasminogen complexed with PAI-1 (rPAI-123-treated against saline-treated mice) [2] [fold]	Substance
0.00138		glycosylated human PAI-1 (Molecular Innovations) (from UniProt P05121 24-402)
	1.6	mouse PAI-1 (endogenous, in descending aorta protein of LDLR-/- ApoB48-deficient mice) (from UniProt P22777 23-402)
